Substrate in data set [1]: O=P(O)(O)O[C@H]1O[C@H](CO)[C@@H](O)[C@H](O)[C@H]1O
Kind of data set: purified protein. Type of data set: biochemical, Thermocrispum agreste. The conditions noted are these: free enzyme, 0.01-45 mM G1P, 2 mM UTP, 3 mM MgCl2, 50 mM Hepes, pH 7.0, 50°C.

Substrate in data set [2]: O=c1ccn([C@@H]2O[C@H](COP(=O)(O)OP(=O)(O)OP(=O)(O)O)[C@@H](O)[C@H]2O)c(=O)[nH]1
Kind of data set: purified protein. In kind it is biochemical, Thermocrispum agreste. The settings on record: free enzyme, 0.05-6 mM UTP, 30 mM G1P, 3 mM MgCl2, 50 mM Hepes, pH 7.0, 50°C.

B1: TaGalU (Thermocrispum agreste) (protein)
chain: MTASAEHQTFTTAIVPAAGLGTRFLPTTKSVPKELLPVVDTPAIELVADEARQAGAERLVIVTSPAKQSIAAYFRPAPELERSLEEKGKTGQLAKIRRAPELLEVEVAIQEQALGLGHAVACAEPNLGPEDDVVAVLLPDDLVLPHGILERMAKVRAEHGGSVLCAFDIPKEEISAYGVFDVSDTDDADVKRVHGMVEKPPAEQAPSTFAAAGRYLLDRAIFDALRRIEPGAGGELQLTDAVALLIQEGHPVHVVVHRGVRHDLGNPGDFLRAAVDFALQDPDYGPELRAWLTDRIARP
notes: full-length, N-terminal His10 tag (pET16bP, no cleavage mentioned), codon-optimized gene (911 bp insert), expressed in E. coli BL21(DE3) pLysS; theoretical mass 33,678 Da; hexamer of about 193 kDa by SEC; EC 2.7.7.9
Consider B1, for which, in “purified protein [1]”, the Km came to 440 µM, the Vmax came out at 1110 µmol/min/mg, the kcat was determined as 598 s⁻¹ and the kcat/Km turned out to be 1.36e+06 M⁻¹ s⁻¹. In the data set “purified protein [2]”, the Km came to 150 µM, the Vmax worked out at 1700 µmol/min/mg, the kcat is 914 s⁻¹ and the kcat/Km worked out at 6.09e+06 M⁻¹ s⁻¹.

(Values after publication PMC7343719, “Immobilization of the Highly Active UDP-Glucose Pyrophosphorylase From Thermocrispum agreste Provides a Highly Efficient Biocatalyst for the Production of UDP-Glucose” (Frontiers in Bioengineering and Biotechnology, 2020).)
